According to paper PMC9482650, “Quantitative fragmentomics allow affinity mapping of interactomes” (Nature Communications, 2022):
Blank lines part the entries; values can stand above or below the binder they belong to.

Tests used:
Assay in all cases: holdup assay
Parameters in all cases: key: below the threshold = too weak to quantify, mostly under pKd 3.1 to 4
ARHGAP21, Q5T5U3 = biological target: T1, ARHGAP21, Q5T5U3
T1 sequence (Q5T5U3 45-169, limits assumed, looked up): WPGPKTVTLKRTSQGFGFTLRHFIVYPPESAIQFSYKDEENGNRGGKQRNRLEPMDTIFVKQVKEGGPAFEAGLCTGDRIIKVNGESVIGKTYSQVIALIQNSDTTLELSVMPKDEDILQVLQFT

IL16_1, Q14005 = biological target: IL16_1, Q14005
GRIP2_6, Q9C0E4 = biological target: GRIP2_6, Q9C0E4
SNTG1, Q9NSN8 = biological target: T2, SNTG1, Q9NSN8
T2 sequence (Q9NSN8 52-150, limits assumed, looked up): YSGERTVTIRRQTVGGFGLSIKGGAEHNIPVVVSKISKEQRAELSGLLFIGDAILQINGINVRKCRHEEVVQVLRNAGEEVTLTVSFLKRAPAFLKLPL

LIN7A, O14910 = biological target: T3, LIN7A, O14910
T3 sequence (O14910 103-200, limits assumed, looked up): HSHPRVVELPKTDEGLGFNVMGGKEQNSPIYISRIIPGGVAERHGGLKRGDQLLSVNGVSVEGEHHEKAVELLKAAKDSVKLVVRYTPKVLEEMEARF

DLG4_2, P78352 = biological target: DLG4_2, P78352
ARHGEF11, O15085 = biological target: T4, ARHGEF11, O15085
T4 sequence (O15085 42-136, limits assumed, looked up): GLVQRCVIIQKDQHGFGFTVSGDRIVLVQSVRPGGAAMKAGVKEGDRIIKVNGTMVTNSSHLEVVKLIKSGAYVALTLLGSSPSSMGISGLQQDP

MAST1, Q9Y2H9 = biological target: MAST1, Q9Y2H9
DLG2_3, Q15700 = biological target: DLG2_3, Q15700
MAGI1_1, Q96QZ7 = biological target: MAGI1_1, Q96QZ7
PDZRN4_1, Q6ZMN7 = biological target: PDZRN4_1, Q6ZMN7
DLG2_2, Q15700 = biological target: DLG2_2, Q15700
HTRA1, Q92743 = biological target: HTRA1, Q92743
PARD3_3, Q8TEW0 = biological target: PARD3_3, Q8TEW0
LIMK2, P53671 = biological target: LIMK2, P53671
NHERF2_2, Q15599 = biological target: NHERF2_2, Q15599
MAGI2_3, Q86UL8 = biological target: MAGI2_3, Q86UL8
APBA2_1, Q99767 = biological target: T5, APBA2_1, Q99767
T5 sequence (Q99767 563-664, limits assumed, looked up): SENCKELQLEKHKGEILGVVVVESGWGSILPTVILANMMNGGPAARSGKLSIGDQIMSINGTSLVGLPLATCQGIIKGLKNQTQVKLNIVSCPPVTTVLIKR

DLG4_1, P78352 = biological target: DLG4_1, P78352
TX1BP3, O14907 = biological target: T6, TX1BP3, O14907
T6 sequence (O14907 10-122, limits assumed, looked up): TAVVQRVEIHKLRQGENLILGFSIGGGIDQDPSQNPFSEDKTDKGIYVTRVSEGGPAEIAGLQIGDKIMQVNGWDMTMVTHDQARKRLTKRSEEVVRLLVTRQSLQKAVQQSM

GRIP2_3, Q9C0E4 = biological target: GRIP2_3, Q9C0E4
RAPGEF6, Q8TEU7 = biological target: T7, RAPGEF6, Q8TEU7
T7 sequence (Q8TEU7 525-625, limits assumed, looked up): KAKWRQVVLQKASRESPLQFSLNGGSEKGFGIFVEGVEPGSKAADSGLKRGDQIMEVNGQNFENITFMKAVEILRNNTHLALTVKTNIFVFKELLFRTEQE

SYNJ2BP, P57105 = biological target: T8, SYNJ2BP, P57105
T8 sequence (P57105 8-110, limits assumed, looked up): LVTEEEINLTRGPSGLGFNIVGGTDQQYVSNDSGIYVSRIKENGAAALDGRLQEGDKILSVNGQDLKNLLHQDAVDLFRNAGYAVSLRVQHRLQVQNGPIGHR

PTPN3, P26045 = biological target: PTPN3, P26045
RADIL, Q96JH8 = biological target: T9, RADIL, Q96JH8
T9 sequence (Q96JH8 971-1071, limits assumed, looked up): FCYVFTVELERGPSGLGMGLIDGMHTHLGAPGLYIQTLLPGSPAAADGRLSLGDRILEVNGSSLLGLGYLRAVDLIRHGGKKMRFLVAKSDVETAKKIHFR

SCRIB_1, Q14160 = biological target: SCRIB_1, Q14160
DLG3_2, Q92796 = biological target: T10, DLG3_2, Q92796
T10 sequence (Q92796 221-321, limits assumed, looked up): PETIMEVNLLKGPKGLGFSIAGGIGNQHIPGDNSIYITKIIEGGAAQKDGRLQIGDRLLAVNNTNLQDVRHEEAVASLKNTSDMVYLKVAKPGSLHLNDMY

[1] = plain residues with an end cap or a label only (N-terminal biotin on a linker: ttds)
[2] = plain residues with an end cap or a label only (N-terminal biotin on a linker: ahx)

MAGI2_3, Q86UL8, sequence (Q86UL8 600-682): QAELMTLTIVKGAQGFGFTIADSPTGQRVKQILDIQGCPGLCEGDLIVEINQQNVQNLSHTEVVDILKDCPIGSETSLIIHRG
IL16_1, Q14005, sequence (Q14005 210-306): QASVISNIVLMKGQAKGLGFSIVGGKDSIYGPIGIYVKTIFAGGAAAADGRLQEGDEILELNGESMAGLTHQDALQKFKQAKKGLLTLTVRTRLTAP
HTRA1, Q92743, sequence (Q92743 360-477): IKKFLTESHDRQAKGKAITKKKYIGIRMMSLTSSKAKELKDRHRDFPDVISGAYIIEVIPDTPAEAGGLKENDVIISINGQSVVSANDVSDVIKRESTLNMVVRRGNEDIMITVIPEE
LIMK2, P53671, sequence (P53671 143-248): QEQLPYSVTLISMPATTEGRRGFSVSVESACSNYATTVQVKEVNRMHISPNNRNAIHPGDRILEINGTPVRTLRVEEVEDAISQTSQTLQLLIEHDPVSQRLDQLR
PTPN3, P26045, sequence (P26045 505-587): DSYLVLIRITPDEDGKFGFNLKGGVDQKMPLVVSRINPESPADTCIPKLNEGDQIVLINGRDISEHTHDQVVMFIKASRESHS
NHERF2_2, Q15599, sequence (Q15599 142-238): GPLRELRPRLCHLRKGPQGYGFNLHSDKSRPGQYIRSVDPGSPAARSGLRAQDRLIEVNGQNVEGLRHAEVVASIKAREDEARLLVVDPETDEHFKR
DLG4_1, P78352, sequence (P78352 62-152): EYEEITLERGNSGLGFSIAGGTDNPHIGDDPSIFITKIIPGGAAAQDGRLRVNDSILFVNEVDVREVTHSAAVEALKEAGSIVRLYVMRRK
MAST1, Q9Y2H9, sequence (Q9Y2H9 962-1065): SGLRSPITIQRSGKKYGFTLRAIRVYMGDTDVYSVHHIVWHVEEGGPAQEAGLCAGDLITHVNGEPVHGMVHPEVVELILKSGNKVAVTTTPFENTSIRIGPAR
DLG4_2, P78352, sequence (P78352 155-259): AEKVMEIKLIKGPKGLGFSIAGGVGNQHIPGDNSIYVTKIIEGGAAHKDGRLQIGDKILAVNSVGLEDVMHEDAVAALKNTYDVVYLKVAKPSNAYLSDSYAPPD
PARD3_3, Q8TEW0, sequence (Q8TEW0 582-685): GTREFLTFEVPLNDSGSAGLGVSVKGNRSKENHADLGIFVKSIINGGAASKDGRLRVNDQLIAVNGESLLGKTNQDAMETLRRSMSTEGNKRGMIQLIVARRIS
PDZRN4_1, Q6ZMN7, sequence (Q6ZMN7 213-318): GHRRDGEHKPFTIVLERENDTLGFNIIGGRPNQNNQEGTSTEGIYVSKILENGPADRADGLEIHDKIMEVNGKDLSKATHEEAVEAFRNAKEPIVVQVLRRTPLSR
GRIP2_6, Q9C0E4, sequence (Q9C0E4 648-740): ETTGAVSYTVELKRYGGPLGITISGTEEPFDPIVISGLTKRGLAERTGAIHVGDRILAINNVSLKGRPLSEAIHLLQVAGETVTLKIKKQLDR
SCRIB_1, Q14160, sequence (Q14160 718-814): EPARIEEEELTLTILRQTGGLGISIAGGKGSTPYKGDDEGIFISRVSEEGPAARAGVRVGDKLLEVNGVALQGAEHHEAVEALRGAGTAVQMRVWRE
GRIP2_3, Q9C0E4, sequence (Q9C0E4 238-339): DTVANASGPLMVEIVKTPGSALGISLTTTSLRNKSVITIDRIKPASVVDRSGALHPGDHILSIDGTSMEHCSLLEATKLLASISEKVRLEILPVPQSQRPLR
MAGI1_1, Q96QZ7, sequence (Q96QZ7 1-106): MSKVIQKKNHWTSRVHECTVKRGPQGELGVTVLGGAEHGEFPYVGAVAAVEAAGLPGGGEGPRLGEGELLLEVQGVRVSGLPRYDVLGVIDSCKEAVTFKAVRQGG

pKd (ARHGAP21, Q5T5U3; [1]): below the threshold | pKd (IL16_1, Q14005; [1]): below the threshold | pKd (GRIP2_6, Q9C0E4; [1]): below the threshold | pKd (SNTG1, Q9NSN8; [1]): below the threshold | pKd (LIN7A, O14910; [1]): below the threshold | pKd (DLG4_2, P78352; [1]): 3.75 | pKd (ARHGEF11, O15085; [1]): below the threshold | pKd (MAST1, Q9Y2H9; [1]): below the threshold | pKd (DLG2_3, Q15700; [1]): 3.68 | pKd (MAGI1_1, Q96QZ7; [1]): below the threshold | pKd (PDZRN4_1, Q6ZMN7; [1]): 3.57 | pKd (DLG2_2, Q15700; [1]): below the threshold | pKd (HTRA1, Q92743; [1]): below the threshold | pKd (PARD3_3, Q8TEW0; [1]): below the threshold | pKd (LIMK2, P53671; [1]): below the threshold | pKd (NHERF2_2, Q15599; [1]): below the threshold | pKd (MAGI2_3, Q86UL8; [1]): below the threshold | pKd (APBA2_1, Q99767; [1]): below the threshold | pKd (DLG4_1, P78352; [1]): below the threshold | pKd (TX1BP3, O14907; [1]): 3.61 | pKd (GRIP2_3, Q9C0E4; [1]): below the threshold | pKd (RAPGEF6, Q8TEU7; [1]): below the threshold | pKd (SYNJ2BP, P57105; [1]): 4.18 | pKd (PTPN3, P26045; [1]): 3.95 | pKd (RADIL, Q96JH8; [1]): below the threshold | pKd (SCRIB_1, Q14160; [1]): below the threshold | pKd (DLG3_2, Q92796; [1]): below the threshold
B1: GPR6, P46095 (peptide)
chain: PFRSRSPSEV

pKd (ARHGAP21, Q5T5U3; [2]): 3.87 | pKd (IL16_1, Q14005; [2]): below the threshold | pKd (GRIP2_6, Q9C0E4; [2]): below the threshold | pKd (SNTG1, Q9NSN8; [2]): below the threshold | pKd (LIN7A, O14910; [2]): below the threshold | pKd (DLG4_2, P78352; [2]): below the threshold | pKd (ARHGEF11, O15085; [2]): below the threshold | pKd (MAST1, Q9Y2H9; [2]): 4.52 | pKd (DLG2_3, Q15700; [2]): below the threshold | pKd (MAGI1_1, Q96QZ7; [2]): below the threshold | pKd (PDZRN4_1, Q6ZMN7; [2]): below the threshold | pKd (DLG2_2, Q15700; [2]): below the threshold | pKd (HTRA1, Q92743; [2]): 4.3 | pKd (PARD3_3, Q8TEW0; [2]): 5.09 | pKd (LIMK2, P53671; [2]): below the threshold | pKd (NHERF2_2, Q15599; [2]): 5.32 | pKd (MAGI2_3, Q86UL8; [2]): below the threshold | pKd (APBA2_1, Q99767; [2]): below the threshold | pKd (DLG4_1, P78352; [2]): below the threshold | pKd (TX1BP3, O14907; [2]): below the threshold | pKd (GRIP2_3, Q9C0E4; [2]): below the threshold | pKd (RAPGEF6, Q8TEU7; [2]): below the threshold | pKd (SYNJ2BP, P57105; [2]): below the threshold | pKd (PTPN3, P26045; [2]): 3.71 | pKd (RADIL, Q96JH8; [2]): 3.78 | pKd (SCRIB_1, Q14160; [2]): below the threshold | pKd (DLG3_2, Q92796; [2]): 3.61
B2: USH1C, Q9Y6N9 (peptide)
chain: KEYDDELTFF

pKd (ARHGAP21, Q5T5U3; [2]): below the threshold | pKd (IL16_1, Q14005; [2]): below the threshold | pKd (GRIP2_6, Q9C0E4; [2]): below the threshold | pKd (SNTG1, Q9NSN8; [2]): 3.79 | pKd (LIN7A, O14910; [2]): below the threshold | pKd (DLG4_2, P78352; [2]): 4.15 | pKd (ARHGEF11, O15085; [2]): 4.06 | pKd (MAST1, Q9Y2H9; [2]): 3.98 | pKd (DLG2_3, Q15700; [2]): 4.06 | pKd (MAGI1_1, Q96QZ7; [2]): below the threshold | pKd (PDZRN4_1, Q6ZMN7; [2]): below the threshold | pKd (DLG2_2, Q15700; [2]): 3.98 | pKd (HTRA1, Q92743; [2]): 4.3 | pKd (PARD3_3, Q8TEW0; [2]): below the threshold | pKd (LIMK2, P53671; [2]): below the threshold | pKd (NHERF2_2, Q15599; [2]): below the threshold | pKd (MAGI2_3, Q86UL8; [2]): 3.56 | pKd (APBA2_1, Q99767; [2]): below the threshold | pKd (DLG4_1, P78352; [2]): 3.84 | pKd (TX1BP3, O14907; [2]): below the threshold | pKd (GRIP2_3, Q9C0E4; [2]): below the threshold | pKd (RAPGEF6, Q8TEU7; [2]): below the threshold | pKd (SYNJ2BP, P57105; [2]): below the threshold | pKd (PTPN3, P26045; [2]): 3.48 | pKd (RADIL, Q96JH8; [2]): 4.2 | pKd (SCRIB_1, Q14160; [2]): 3.62 | pKd (DLG3_2, Q92796; [2]): 4.27
B3: PDZRN3, Q9UPQ7 (peptide)
chain: YNSFLSVTTV
